Results published in US20230340151A1 (Pfizer, published 2023).

Key:
[1] = target: T1, Human GUCY2C full length (SEQ ID NO: 224), recombinant protein (human, UniProt P25092 24-430, limits assumed); experiment: SPR, GUCY2c directly immobilized, 25 C
T1 construct: also called huGUCY2C; biotinylated human GUCY2c

[2] = target: CID1943 (human GUCY2c point mutant) (human); experiment: flow cytometry on cells displaying the construct
[3] = target: CID1947 (human GUCY2c point mutant) (human); experiment: flow cytometry on cells displaying the construct
[4] = target: CID1873 (human GUCY2c patch mutant) (human/chicken); experiment: flow cytometry on cells displaying the construct
[5] = target: T2, CID1876 (human-chicken GUCY2c chimera) (human/chicken); experiment: flow cytometry on cells displaying the construct
T2 chain: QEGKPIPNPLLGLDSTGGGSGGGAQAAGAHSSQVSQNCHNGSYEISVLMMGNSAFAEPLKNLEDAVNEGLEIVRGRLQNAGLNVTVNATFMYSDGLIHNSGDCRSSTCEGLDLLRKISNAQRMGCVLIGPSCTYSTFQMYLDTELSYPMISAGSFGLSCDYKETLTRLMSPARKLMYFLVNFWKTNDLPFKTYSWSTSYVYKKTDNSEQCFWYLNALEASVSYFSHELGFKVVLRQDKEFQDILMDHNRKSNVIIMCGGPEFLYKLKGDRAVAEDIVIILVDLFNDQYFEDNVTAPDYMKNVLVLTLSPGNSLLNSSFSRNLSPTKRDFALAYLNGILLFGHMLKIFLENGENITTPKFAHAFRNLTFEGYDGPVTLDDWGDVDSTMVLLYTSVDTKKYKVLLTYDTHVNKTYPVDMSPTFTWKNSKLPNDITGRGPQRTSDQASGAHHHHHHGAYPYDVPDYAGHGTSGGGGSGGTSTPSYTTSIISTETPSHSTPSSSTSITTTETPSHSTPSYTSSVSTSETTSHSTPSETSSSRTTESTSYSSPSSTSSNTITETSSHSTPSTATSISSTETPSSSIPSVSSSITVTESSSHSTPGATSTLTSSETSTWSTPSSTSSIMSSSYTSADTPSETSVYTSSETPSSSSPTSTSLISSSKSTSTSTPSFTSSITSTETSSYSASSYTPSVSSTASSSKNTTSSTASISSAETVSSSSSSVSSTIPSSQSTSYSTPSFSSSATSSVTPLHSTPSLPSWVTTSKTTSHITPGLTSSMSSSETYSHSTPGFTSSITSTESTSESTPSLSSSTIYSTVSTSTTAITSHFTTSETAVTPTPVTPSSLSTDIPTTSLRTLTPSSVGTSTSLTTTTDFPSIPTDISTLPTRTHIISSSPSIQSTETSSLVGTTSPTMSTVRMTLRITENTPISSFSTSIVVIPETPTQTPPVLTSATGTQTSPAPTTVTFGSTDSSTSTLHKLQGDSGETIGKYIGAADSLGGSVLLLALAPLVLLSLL

[6] = target: CID1950 (human GUCY2c point mutant) (human); experiment: flow cytometry on cells displaying the construct
[7] = target: CID1944 (human GUCY2c point mutant) (human); experiment: flow cytometry on cells displaying the construct
[8] = target: T3, CID1875 (human-chicken GUCY2c chimera) (human/chicken); experiment: flow cytometry on cells displaying the construct
T3 chain: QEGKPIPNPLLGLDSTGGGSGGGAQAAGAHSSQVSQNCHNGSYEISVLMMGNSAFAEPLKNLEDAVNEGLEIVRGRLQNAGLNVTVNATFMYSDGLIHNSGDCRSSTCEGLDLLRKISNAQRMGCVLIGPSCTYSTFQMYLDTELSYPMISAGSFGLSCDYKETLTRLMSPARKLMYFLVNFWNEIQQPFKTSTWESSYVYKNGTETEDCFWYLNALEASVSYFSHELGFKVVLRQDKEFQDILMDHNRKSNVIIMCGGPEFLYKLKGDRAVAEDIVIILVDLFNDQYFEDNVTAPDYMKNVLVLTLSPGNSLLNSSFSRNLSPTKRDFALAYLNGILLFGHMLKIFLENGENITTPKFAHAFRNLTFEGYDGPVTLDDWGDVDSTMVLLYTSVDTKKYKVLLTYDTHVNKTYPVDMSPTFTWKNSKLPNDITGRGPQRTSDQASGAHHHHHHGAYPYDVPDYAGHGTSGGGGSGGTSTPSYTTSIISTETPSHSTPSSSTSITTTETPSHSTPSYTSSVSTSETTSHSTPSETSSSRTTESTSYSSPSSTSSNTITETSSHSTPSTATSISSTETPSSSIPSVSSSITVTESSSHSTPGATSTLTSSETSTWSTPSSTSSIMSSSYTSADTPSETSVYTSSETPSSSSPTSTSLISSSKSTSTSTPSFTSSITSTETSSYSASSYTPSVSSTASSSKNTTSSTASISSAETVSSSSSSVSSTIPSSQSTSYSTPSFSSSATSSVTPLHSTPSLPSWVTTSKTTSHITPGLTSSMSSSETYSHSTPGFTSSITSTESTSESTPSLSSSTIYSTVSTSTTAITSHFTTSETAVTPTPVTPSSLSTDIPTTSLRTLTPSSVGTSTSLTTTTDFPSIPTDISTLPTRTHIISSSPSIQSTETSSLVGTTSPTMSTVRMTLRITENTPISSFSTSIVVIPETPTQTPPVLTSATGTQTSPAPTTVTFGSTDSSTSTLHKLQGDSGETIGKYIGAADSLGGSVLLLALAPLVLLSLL

T1 sequence (P25092 24-430 F281L limits assumed): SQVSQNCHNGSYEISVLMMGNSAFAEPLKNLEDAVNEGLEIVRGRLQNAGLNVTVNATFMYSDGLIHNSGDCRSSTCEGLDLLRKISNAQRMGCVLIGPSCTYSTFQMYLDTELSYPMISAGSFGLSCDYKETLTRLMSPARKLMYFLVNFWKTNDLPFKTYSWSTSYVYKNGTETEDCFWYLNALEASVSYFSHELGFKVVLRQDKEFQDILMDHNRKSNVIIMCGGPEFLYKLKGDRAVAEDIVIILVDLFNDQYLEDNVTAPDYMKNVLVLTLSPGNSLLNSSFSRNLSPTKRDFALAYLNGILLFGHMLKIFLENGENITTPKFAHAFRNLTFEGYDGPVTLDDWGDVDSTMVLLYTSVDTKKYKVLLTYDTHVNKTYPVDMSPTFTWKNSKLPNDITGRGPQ

B1: GUCY2C-1608 (bispecific antibody)
chain 1: DIQLTQSPSSLSASVGDRVTITCRASESVDYYGSSLLQWYQQKPGKAPKLLIYAASKLASGVPSRFSGSGSGTDFTLTISSLQPEDFATYYCQQTRKAYTFGQGTKLEIKGGGSGGGGEVQLVESGGGLVQPGGSLRLSCAASGFTFSDYYMTWVRQAPGKGLEWVAFIRNQARGYTSDHNPSVKGRFTISRDNAKNSLYLQMNSLRAEDTAVYYCARDRPSYYVLDYWGQGTTVTVSSGCPPCPAPEAAGAPSVFLFPPKPKDTLMISRTPEVTCVVVDVSHEDPEVKFNWYVDGVEVHNAKTKPREEQYNSTYRVVSVLTVLHQDWLNGKEYKCKVSNKALPAPIEKTISKAKGQPREPQVCTLPPSREEMTKNQVSLWCLVKGFYPSDIAVEWESNGQPENNYKTTPPVLDSDGSFFLYSKLTVDKSRWQQGNVFSCSVMHEALHNHYTQKSLSLSPG
chain 2: DIQMTQSPSSLSASVGDRVTITCTSSQSLFNVRSQKNYLAWYQQKPGKAPKLLIYWASTRESGVPSRFSGSGSGTDFTLTISSLQPEDFATYYCKQSYDLFTFGGGTKVEIKGGGGSGGGGEVQLVESGGGLVQPGGSLRLSCAASGFTFSSYWMHWVRQAPGKGLEWIGEIKPSNELTNVHEKFKDRFTISVDKAKNSAYLQMNSLRAEDTAVYYCTRTITTTEGYWFFDVWGQGTLVTVSSGCPPCPAPEAAGAPSVFLFPPKPKDTLMISRTPEVTCVVVDVSHEDPEVKFNWYVDGVEVHNAKTKPREEQYNSTYRVVSVLTVLHQDWLNGKEYKCKVSNKALPAPIEKTISKAKGQPREPQVYTLPPCREEMTKNQVSLSCAVKGFYPSDIAVEWESNGQPENNYKTTPPVLDSDGSFFLVSKLTVDKSRWQQGNVFSCSVMHEALHNHYTQKSLSLSPG
notes: also called GUCY2c CD3 bispecific
B1 gave a Kd [1] of 7.47 nM, a koff [1] of 0.000758 s⁻¹ and a kon [1] of 101000 M⁻¹ s⁻¹. B1: binds [2]; binds [3]; binds [4]. B1: binds [5]; binds [6]; binds [7]. B1: binds [8].
